Experimental data taken from paper PMC7227451 (Cellular and Molecular Immunology, 2020).

Molecular target: T1, SARS-CoV-2 RBD-hFc (SARS-CoV-2, UniProt P0DTC2)
T1 construct: not shown: Fc (human IgG1), C-terminal, kept
Test: ELISA
Settings: both partners purified

B1: 80R (antibody, V domains shown)
VH: EVQLVQSGGGVVQPGKSLRLSCAASGFAFSSYAMHWVRQAPGKGLEWVAVISYDGSNKYYADSVKGRFTISRDNSKNTLYLQMNSLRAEDTAVYYCARDRSYYLDYWGQGTLVTVSS
VL: ETTLTQSPATLSLSPGERATLSCRASQSVRSNLAWYQQKPGQAPRPLIYDASTRATGIPDRFSGSGSGTDFTLTISRLEPEDFAVYYCQQRSNWPPTFGQGTKVEVK
**Q.** Does B1 bind?
**A.** Result: no binding
